Measured values as given in patent US20240132589A1.

What was measured:
[1] = molecular target: Human LILRB2 on stably transduced HEK293T cells (human) (UniProt Q8N423); assay: flow cytometry competition on HEK293T-LILRB2 cells; blocking mAb 1 µg/mL; competitor: biotinylated B2Comp2
[2] = molecular target: Human LILRB2 on stably transduced HEK293T cells (human) (UniProt Q8N423); assay: flow cytometry competition on HEK293T-LILRB2 cells; blocking mAb 10 µg/mL; competitor: biotinylated B2Comp1
[3] = molecular target: Human LILRB2 on stably transduced HEK293T cells (human) (UniProt Q8N423); assay: flow cytometry competition on HEK293T-LILRB2 cells; blocking mAb 10 µg/mL; competitor: biotinylated B2Comp2
[4] = molecular target: Human LILRB2 on transiently transfected HEK293-6E cells (human) (UniProt Q8N423); assay: flow cytometry, transiently transfected HEK293-6E cells
Sequence of Human LILRB2 on transiently transfected HEK293-6E cells (human) (Q8N423 22-597): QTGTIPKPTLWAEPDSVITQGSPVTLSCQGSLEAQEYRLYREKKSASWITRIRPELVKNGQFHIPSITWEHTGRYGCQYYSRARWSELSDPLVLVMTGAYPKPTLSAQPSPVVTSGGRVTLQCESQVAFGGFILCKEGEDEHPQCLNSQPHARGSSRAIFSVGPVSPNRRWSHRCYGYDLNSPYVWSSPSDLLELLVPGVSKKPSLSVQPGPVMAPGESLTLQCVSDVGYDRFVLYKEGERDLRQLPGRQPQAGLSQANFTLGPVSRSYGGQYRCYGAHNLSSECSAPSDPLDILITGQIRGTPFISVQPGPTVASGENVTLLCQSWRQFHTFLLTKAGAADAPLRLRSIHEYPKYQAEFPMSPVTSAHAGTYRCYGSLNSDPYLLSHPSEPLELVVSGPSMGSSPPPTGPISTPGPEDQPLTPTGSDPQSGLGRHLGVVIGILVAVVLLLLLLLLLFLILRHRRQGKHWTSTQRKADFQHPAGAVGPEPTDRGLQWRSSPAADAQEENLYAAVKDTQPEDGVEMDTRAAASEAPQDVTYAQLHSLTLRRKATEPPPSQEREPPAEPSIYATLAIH

[5] = molecular target: Human LILRB2 on stably transduced HEK293T cells (human) (UniProt Q8N423); assay: flow cytometry competition on HEK293T-LILRB2 cells; blocking mAb 1 µg/mL; competitor: biotinylated B2Comp1
[6] = molecular target: Human LILRB2 on stably transduced HEK293T cells (human) (UniProt Q8N423); assay: flow cytometry competition on HEK293T-LILRB2 cells; blocking mAb 0.1 µg/mL; competitor: biotinylated B2Comp2
[7] = molecular target: Human LILRB2 on stably transduced HEK293T cells (human) (UniProt Q8N423); assay: flow cytometry competition on HEK293T-LILRB2 cells; blocking mAb 0.1 µg/mL; competitor: biotinylated B2Comp1

Sequence of Human LILRB2 on stably transduced HEK293T cells (human) (Q8N423 other isoform, or with tags, fused parts or gaps limits assumed): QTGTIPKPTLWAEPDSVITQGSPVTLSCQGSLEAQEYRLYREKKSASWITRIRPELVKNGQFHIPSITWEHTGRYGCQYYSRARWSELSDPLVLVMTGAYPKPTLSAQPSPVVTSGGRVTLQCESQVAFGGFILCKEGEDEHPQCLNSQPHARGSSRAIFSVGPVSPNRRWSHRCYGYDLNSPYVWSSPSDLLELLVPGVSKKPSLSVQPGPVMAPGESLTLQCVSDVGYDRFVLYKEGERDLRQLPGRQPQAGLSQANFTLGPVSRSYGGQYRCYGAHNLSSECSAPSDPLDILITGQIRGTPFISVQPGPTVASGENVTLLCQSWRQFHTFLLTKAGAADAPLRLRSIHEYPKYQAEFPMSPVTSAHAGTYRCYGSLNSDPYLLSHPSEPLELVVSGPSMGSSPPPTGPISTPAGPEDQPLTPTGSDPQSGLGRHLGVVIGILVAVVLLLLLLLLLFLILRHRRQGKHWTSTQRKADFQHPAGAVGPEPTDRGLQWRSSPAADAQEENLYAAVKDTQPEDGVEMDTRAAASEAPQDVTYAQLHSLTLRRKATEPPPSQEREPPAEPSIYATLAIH

B1: B2Comp2 (antibody, IgG4, V domains shown)
VH: QITLKESGPTLVKPTQTLTLTCTFSGFSLNTYAMGVSWIRQPPGKALEWLASIWWNGNKYNNPSLKSRLTVTKDTSKNQVVLTMTNMDPVDTATYYCAHSRIIRFTDYVMDAWGQGTLVTVSS
VL: DIQMTQSPSSLSTSVGDRVTITCRASEDIYNDLAWYQQKPGKAPKLLIYNANSLHTGVASRFSGSGSGTDFTFTISSLQPEDVATYFCQQYYDYPLTFGQGTKLEIKR
modifications: Biotin-conjugated when used as the labelled ('hot') benchmark antibody in the binning assay. The site is not stated and is not carried by the letters.
Question: What does the source list for B1?
Answer: % Blocking of B2Comp2 Binding [1]: 97%; % Blocking of B2Comp1 Binding [2]: 80%; % Blocking of B2Comp2 Binding [3]: 100%; Bmax (MFI) [4]: 9630 MFI; % Blocking of B2Comp1 Binding [5]: 78%; % Blocking of B2Comp2 Binding [6]: 44%; % Blocking of B2Comp1 Binding [7]: 47%
